Results reported in paper PMC4108065, “Inflammation and pancreatic cancer: molecular and functional interactions between S100A8, S100A9, NT-S100A8 and TGFβ1” (Cell Communication and Signaling : CCS, 2014).
Where “and” joins values, the source holds several entries; their conditions need not be identical. Equal values may be shown once.

Experiments:
[1] = Stability of the 2280 m/z peptide in non-conditioned media (MALDI-TOF/MS); format: in vitro ADME; conditions: 200 μM, 37°C, time 0, MALDI-TOF/MS
Experimental: (§1) To obtain BxPC3 and Capan1 conditioned media (CM), 400,000 cells were cultured (75 cm^2 flasks) for 96 hours in RPMI supplemented with 1% FCS and 0.1% gentamycin. In parallel, Ukrain (Nowicky Pharma, Wien, Austria) treated Capan1 CM were obtained as above, the difference being that Ukrain was added 24 hours after cells had been seeded at the final concentration of 5 μM. Complete culture media maintained in a cell culture incubator for 96 hours (negative control), Capan1 and Ukrain-treated Capan1 CM were centrifuged at 1,500 rpm for 10 min, and then immediately mixed with 3 μM S100A8 or 2.5 μM S100A9 (ProSpec-Tany TechnoGene, Ness Ziona, Israel) and maintained at 37°C overnight before MALDI-TOF/MS analyses. Complete culture media, BxPC3 and Capan1 CM, treated as described above, were incubated at 37°C with 200 μM of the S100A8 1–19 N-terminal aminoacid sequence (NT-S100A8) (Primm, Milano, Italy) for 1, 2, 3, 4, 5, 6, 12 and 24 hours before MALDI-TOF/MS analyses. At least three independent sets of experiments were performed for both assays.
(§2) Cell culture media were first desalted and purified by ZipTip C18 pipette tips, following the procedure described in the ZipTip user’s guide. […]

[2] = Degradation of the 2280 m/z peptide in Capan1 conditioned media (MALDI-TOF/MS); format: in vitro ADME, human; conditions: 37°C
Experimental: as §1, §2

[3] = Degradation of the 2280 m/z peptide in BxPC3 conditioned media (MALDI-TOF/MS); format: in vitro ADME, human; conditions: 37°C
Experimental: as §1, §2

S100A9, P06702 = biological target: T1, S100A9, P06702; assay: MALDI-TOF/MS of mixtures (linear positive ion mode); proteins and CaCl2 mixed at equimolar concentration (11.3 μM) in aqueous solution, incubated overnight at 37°C, diluted 1/10 in 0.1% TFA, sinapinic acid matrix; conditions: remark: other sources report otherwise
T1 chain: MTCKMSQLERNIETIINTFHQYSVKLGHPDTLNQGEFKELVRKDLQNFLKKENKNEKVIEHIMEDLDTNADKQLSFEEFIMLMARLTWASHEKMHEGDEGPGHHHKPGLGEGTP

[4] = biological target: the molecule itself; assay: as above

## 2280 m/z peptide: synthesized 1–19 N-terminal aminoacid sequence of S100A8, released by Capan1 conditioned medium (MLTELEKALNSIIDVYHKY; UniProt P05109 1-19, looked up, fragment)
[1]
  abundance of the parental peptide at 2280 m/z (TIC normalized): 0.99
[2]; 200 μM peptide in Capan1 conditioned media (96 h, RPMI 1% FCS), MALDI-TOF/MS, TIC normalized
  time of degradation of the parental 2280 m/z peptide: 2 h
[2]; 200 μM, Capan1 conditioned media, 24 hours, MALDI-TOF/MS 650–3000 m/z
  parental 19 aminoacid peptide after 24 hours' incubation: disappeared
[3]; 200 μM peptide in BxPC3 conditioned media (96 h, RPMI 1% FCS), MALDI-TOF/MS, TIC normalized
  time of degradation of the parental 2280 m/z peptide: 12 h
[3]; 200 μM, BxPC3 conditioned media, 24 hours, MALDI-TOF/MS 650–3000 m/z
  parental 19 aminoacid peptide after 24 hours' incubation: disappeared

B1: S100A9, P06702 1-114 (natural protein)
chain: T1 chain
S100A9, P06702
  stoichiometry N: 2 and 3

B2: S100A8 (natural protein, UniProt P05109 1-93, looked up)
chain: MLTELEKALNSIIDVYHKYSLIKGNFHAVYRDDLKKLLETECPQYIRKKGADVWFKELDINTDGAVNFQEFLILVIKMGVAAHKKSHEESHKE
notes: Commercial recombinant protein; source: bought: ProSpec-Tany TechnoGene
[4]
  stoichiometry N: 2
